# B1: PS4-002-vcMMAE (PS4 maxibody-vcMMAE conjugate, WT) (Fc fusion, part only; not given: scFv linker, hinge-Fc and drug, not shown: another chain or arm of the molecule; a dimerising Fc or GST; small tags and cut ends)
# VH: QVQLVQSGGGLVNPGGSLRLSCAASGFPFSDHYMSWIRQAPGKGLEWVSYISNRGYTIHYADFVKGRFTISRDNAENTLYLQMNSLRAEDTAVYYCARDRGTIDAFDLWGQGTMVTVSS
# VL: QSALTQPASVSGSPGQSITIPCSGTSDDIGRYNYVSWYQQHPGKAPKLLIYDVTRRSSGVSSHFSGSKSGSTASLIISGLQADDEADYFCSSFTNNRTVVFGGGTKLTVL
# modifications: vcMMAE conjugated to cysteines after partial reduction with TCEP; average DAR 4.09; sites not stated, presumabl [CUT]
# B2: PS4-002 maxibody (scFv-human IgG1 Fc), wild type (Fc fusion, part only; not given: scFv linker and IgG1 hinge-Fc, not shown: another chain or arm of the molecule; a dimerising Fc or GST; small tags and cut ends)
# VH: B1 VH
# VL: B1 VL
# B3: PS4 maxibody variant 2 (Linker-C variant) (Fc fusion)
# scFv: QVQLVQSGGGLVNPGGSLRLSCAASGFPFSDHYMSWIRQAPGKGLEWVSYISNRGYTIHYADFVKGRFTISRDNAENTLYLQMNSLRAEDTAVYYCARDRGTIDAFDLWGQGTMVTVSSGGGGGSGGGSCGGGGSQSALTQPASVSGSPGQSITIPCSGTSDDIGRYNYVSWYQQHPGKAPKLLIYDVTRRSSGVSSHFSGSKSGSTASLIISGLQADDEADYFCSSFTNNRTVVFGGGTKLTVLG
# notes: also called Mutant 2; L-C; not shown: Fc domain of human IgG1
# Tests used:
# [1] = biological target: VLA-3 (ITGA3/ITGB1) on the cell membrane; assay: cell-based or functional assay
# [2] = biological target: recombinant human VLA-3 protein (ITGA3/ITGB1 heterodimer) (human) (UniProt P05556); assay: ELISA, coated VLA-3 (0.125-1.5 nM), antibody 1 µg/mL
# [3] = biological target: recombinant human VLA-3 protein (ITGA3/ITGB1 heterodimer) (human) (UniProt P05556); assay: BLI (Octet Red), antibody on AHC sensor, 50 nM VLA-3 with 2 mM Ca2+
# [4] = biological target: recombinant human VLA-3 protein (ITGA3/ITGB1 heterodimer) (human) (UniProt P05556); assay: BLI (Octet Red), antibody on AHC sensor, 50 nM VLA-3 with 2 mM EDTA
# [5] = biological target: recombinant human VLA-3 protein (ITGA3/ITGB1 heterodimer) (human) (UniProt P05556); assay: BLI (Octet Red), antibody on AHC sensor, 50 nM VLA-3 with 2 mM Mg2+
# [6] = biological target: recombinant human VLA-3 protein (ITGA3/ITGB1 heterodimer) (human) (UniProt P05556); assay: BLI (Octet Red), antibody on AHC sensor, 50 nM VLA-3 with 2 mM Mn2+
# [7] = biological target: recombinant human VLA-3 protein (ITGA3/ITGB1 heterodimer) (human) (UniProt P05556); assay: SPR (Biacore T200), PS4-002 immobilised on CM5, VLA-3 as analyte, HBS-EP running buffer with 3 mM EDTA
# [8] = biological target: recombinant human VLA-3 protein (ITGA3/ITGB1 heterodimer) (human) (UniProt P05556); assay: BLI (Octet Red), antibody on AHC sensor, VLA-3 as analyte, no additive, 0 mM EDTA in the running buffer
# [9] = biological target: recombinant human VLA-3 protein (ITGA3/ITGB1 heterodimer) (human, UniProt P05556 21-728); assay: ELISA, coated VLA-3 (0.125-1.5 nM), antibody 1 µg/mL
# Chain of recombinant human VLA-3 protein (ITGA3/ITGB1 heterodimer) (P05556 21-728, one chain of several): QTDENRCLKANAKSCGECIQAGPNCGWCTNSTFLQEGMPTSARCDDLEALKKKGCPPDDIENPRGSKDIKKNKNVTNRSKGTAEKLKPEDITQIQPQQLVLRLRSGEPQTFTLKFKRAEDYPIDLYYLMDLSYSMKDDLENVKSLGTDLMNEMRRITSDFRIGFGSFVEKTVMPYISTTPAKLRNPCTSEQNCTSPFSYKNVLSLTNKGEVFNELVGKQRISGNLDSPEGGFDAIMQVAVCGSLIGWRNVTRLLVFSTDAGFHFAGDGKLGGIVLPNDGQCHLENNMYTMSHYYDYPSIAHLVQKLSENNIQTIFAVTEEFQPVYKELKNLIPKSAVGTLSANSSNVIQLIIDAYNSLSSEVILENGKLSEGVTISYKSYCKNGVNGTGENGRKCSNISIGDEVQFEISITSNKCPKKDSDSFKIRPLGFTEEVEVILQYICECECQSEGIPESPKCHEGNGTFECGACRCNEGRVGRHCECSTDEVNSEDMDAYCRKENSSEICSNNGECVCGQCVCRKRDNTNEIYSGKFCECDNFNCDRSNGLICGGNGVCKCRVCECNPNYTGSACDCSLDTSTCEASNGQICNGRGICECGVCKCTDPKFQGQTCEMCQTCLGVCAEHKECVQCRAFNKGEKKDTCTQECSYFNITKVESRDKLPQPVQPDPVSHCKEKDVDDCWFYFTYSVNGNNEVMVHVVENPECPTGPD
# Chain of recombinant human VLA-3 protein (ITGA3/ITGB1 heterodimer) (human) (P05556 21-728, one chain of several): as above
binder,measurement,setting,value
B1,"IC50 (nM), cell growth inhibition (AlamarBlue), A549 cells",[1],5.22 nM
same,"IC50 (nM), cell growth inhibition (AlamarBlue), BT20 cells",[1],134 nM
same,"IC50 (nM), cell growth inhibition (AlamarBlue), CoCaB1 cells",[1],2.21 nM
same,"IC50 (nM), cell growth inhibition (AlamarBlue), MDA-MB-231 cells",[1],0.77 nM
same,"IC50 (nM), cell growth inhibition (AlamarBlue), MDA-MB-453 cells (first row)",[1],9.79 nM
same,"IC50 (nM), cell growth inhibition (AlamarBlue), MDA-MB-453 cells (second row)",[1],18.8 nM
same,"IC50 (nM), cell growth inhibition (AlamarBlue), MKN45 cells",[1],14.1 nM
same,"IC50 (nM), cell growth inhibition (AlamarBlue), Panc-1 cells",[1],2.7 nM
same,"IC50 (nM), cell growth inhibition (AlamarBlue), SCaBER cells",[1],1.88 nM
same,"IC50 (nM), cell growth inhibition (AlamarBlue), SW780 cells",[1],1.78 nM
same,"IC50 (nM), cell growth inhibition (AlamarBlue), UMUC-3 cells",[1],2.1 nM
same,"Maximum (% inhibition), cell growth inhibition (AlamarBlue), A549 cells",[1],77.3%
same,"Maximum (% inhibition), cell growth inhibition (AlamarBlue), Aspc-1 cells",[1],51.8%
same,"Maximum (% inhibition), cell growth inhibition (AlamarBlue), BT20 cells",[1],79.6%
same,"Maximum (% inhibition), cell growth inhibition (AlamarBlue), CoCaB1 cells",[1],95.5%
same,"Maximum (% inhibition), cell growth inhibition (AlamarBlue), MDA-MB-231 cells",[1],78%
same,"Maximum (% inhibition), cell growth inhibition (AlamarBlue), MDA-MB-453 cells (first row)",[1],96.2%
same,"Maximum (% inhibition), cell growth inhibition (AlamarBlue), MDA-MB-453 cells (second row)",[1],87.9%
same,"Maximum (% inhibition), cell growth inhibition (AlamarBlue), MDA-MB-468 cells",[1],89.9%
same,"Maximum (% inhibition), cell growth inhibition (AlamarBlue), MKN45 cells",[1],55.6%
same,"Maximum (% inhibition), cell growth inhibition (AlamarBlue), Panc-1 cells",[1],73.8%
same,"Maximum (% inhibition), cell growth inhibition (AlamarBlue), SCaBER cells",[1],89.7%
same,"Maximum (% inhibition), cell growth inhibition (AlamarBlue), SW780 cells",[1],90.4%
same,"Maximum (% inhibition), cell growth inhibition (AlamarBlue), UMUC-3 cells",[1],90.8%
B2,EC50,[2],1 nM
same,Kd,[3],6.46 nM
same,koff,[3],0.000209 s⁻¹
same,kon,[3],32400 M⁻¹ s⁻¹
same,Kd,[4],2170 nM
same,koff,[4],0.00397 s⁻¹
same,kon,[4],1830 M⁻¹ s⁻¹
same,Kd,[5],0.85 nM
same,koff,[5],3.78e-05 s⁻¹
same,kon,[5],44600 M⁻¹ s⁻¹
same,Kd,[6],0.23 nM
same,koff,[6],8.46e-06 s⁻¹
same,kon,[6],36500 M⁻¹ s⁻¹
same,Kd,[7],216 nM
same,koff,[7],0.0045 s⁻¹
same,kon,[7],20900 M⁻¹ s⁻¹
same,Kd,[8],2.15 nM
same,koff,[8],5.9e-05 s⁻¹
same,kon,[8],32500 M⁻¹ s⁻¹
B3,EC50,[9],~1 nM
